According to patent US8569578B1, “Generating transgenic potatoes with novel resistance to potato cyst nematodes by silencing nematode parasitism genes of CLE -1 and CLE-4s” (The United States of America, as represented by the …, priority 2009, dated 2013):
“Also recorded” adds a separate entry of the source.

Key:
[1] = test system: Arabidopsis clv3-2 mutant plants; test: complementation of clv3-2 mutant by Gr-CLE genes under CLV3 promoter; assay type: in vivo; settings: gene under control of CLV3 promoter in clv3-2
Description: Gr-CLE proteins can completely or partially replace CLV3 activity within meristems. For the complementation study, Gr-CLE genes were subcloned into pBU14 under the control of the CLV3 promoter (Brand et al. 2002. Plant Physiol. 129:565-575). To generate the PCLV3:Gr-CLE-1 construct, primer pair of CLE1-spF and CLE1-TGAxbaR was used. To generate PCLV3:Gr-CLE-4-B and PCLV3:Gr-CLE-4-C constructs, primer pair of CLE4B1-spF and 4B1-TGAxbaR was used. Each amplified PCR product was cloned into pBU14 at BamHI and XbaI sites. Arabidopsis clv3-2 mutant plants were transformed with A. tumefaciens GV3101 harboring each of the above constructs.
All transformants were selected on ½×MS medium containing 50 μg/mL of kanamycin (Sigma-Aldrich) (for the pMD1 vector) or 30 μg/mL of glufosinate ammonium (Fisher, Pittsburgh, Pa., U.S.A.) (for the pBU14 vector) and transgenic Arabidopsis plants were then cultivated at 24° C. for 16 h of light and 8 h of dark in a growth room. For measuring the root growth rate, transgenic plants expressing individual Gr-CLE genes or the empty vector were first selected on kanamycin containing medium for five days, then transferred to ½×MS plates and cultured vertically at 24° C. for 16 h of light and 8 h of dark in a growth chamber (Percival, Perry, Iowa, U.S.A.).
Gr-CLE-1, Gr-CLE-4-B, and Gr-CLE-4-C were the most representative Gr-CLE genes identified. To determine if these genes could replace CLV3 activity in the shoot and floral meristems, the full-length sequences of these three genes were cloned under the control of the CLV3 promoter and introduced into Arabidopsis clv3-2 mutant plants. clv mutants have enlarged shoot and floral meristems that lead to shoot fasciation and formation of extra floral organs including an increase in carpel number (Clark et al. 1993, 1995; Kayes and Clark 1998). For example, flowers of a clv3-2 mutant usually have six to seven carpels in the fourth whorl (Clark et al. 1995), whereas wild-type flowers have only two carpels in the fourth whole. Carpel number is a sensitive measurement for meristem size (Clark et al. 1993; Ni and Clark 2006). Multiple independent transgenic lines for each transgene were obtained and analyzed (Table 2).

potato hairy roots = test: overexpression of Gr-CLE genes in potato hairy roots; assay type: in vivo; settings: measured at 4, 6, 8 and 10 days after dissecting; compared with vector control
Description: To examine root meristems, primary root tips were excised from peptide treated Arabidopsis seedlings or from transgenic potato hairy roots and immediately mounted in water onto a glass slide. Roots were examined under an Olympus BX-50 microscope equipped with Nomarski optics and images were captured using a QImaging Retiga EXi digital CCD camera (QImaging, Surrey, BC, Canada). The root apical meristem (RAM) regions of individual primary roots that covered the distance from the position around the quiescent center to the position where elongated root cells immediately follow cytoplasm-dense meristematic cells were measured microscopically. The collected data were analyzed using the MetaMorph imaging analysis software (Universal Imaging Corporation, Downingtown, Pa., U.S.A.)
A. rhizogenes strain 15834 was transformed with individual transgene constructs of interest and used for the generation of potato hairy roots as described previously (Wang et al. 2007. Mol. Plant Pathol. 8:423-436) with some modifications. Potato stem pieces from tissue cultures were incubated with the transformed A. rhizogenes cell suspension for 10 mins, then transferred onto the callus induction medium containing 1×MS salts (Sigma-Aldrich), 26.7 μM Glycine, 4 μM Nicotinic Acid, 2.4 μM Pyridoxine HCL (Sigma-Aldrich), 1.2 μM Thiamine HCL (Sigma-Aldrich), 0.5 μM Folic Acid, 0.2 μM d-biotin (Sigma-Aldrich), 0.01% Myo-inositol (Acros, Morris Plains, N.J., U.S.A.), 3% sucrose, 0.001% 6-BAP (Sigma-Aldrich), 0.002% NAA (Sigma-Aldrich), and 1% agar and cultivated for four days at 24° C. without light. The infected stem pieces were then cultured on the propagation medium containing 1×MS salts, 1.2 mM NaH2PO4, 0.01% Myo-inositol, 0.1% Thiamine HCl, 3% sucrose, 1% agar, 50 μg/mL of kanamycin, and 238 μg/mL of timentin (GlaxoSmithKline). Timentin was used to inhibit the growth of A. rhizogenes 15834 and kanamycin was added to select for transformed roots. Approximately 12-15 days after root emergence, 1 cm-long root tips were dissected and cultured on vertical plates containing the propagation medium with 119 μg/mL of timentin and the root growth rate was measured at different time points.

B1: Gr-CLE-4-B: G. rostochiensis CLE gene of class Gr-CLE-4, cDNA SEQ ID NO: 4 (nucleic acid, listed as Globodera rostochiensis)
DNA: ATCATAATTTCCAAAATCCCAATAAAAGCTTCCTCAATAAAGTAAATATGGCCACGAACACAATGCTTTGCCTGTTAATTTTGAGCGTTGTTCTCGCTCTCGCATTTGCTACGAATAAAAAGGGTGATGAAGAACCGGAGAACCATTCGACCGGCATTTTTGGAAAGGTCGGACGAGTTGTGACCGTGGCACTTGCGATGTCGTCTCGTCTGGGAGGGGCTGACGCAACCCGAGGAGGTGGAGCTGTATATGGAGGAAACTTGAAATCCAATCTATTGCCAAACAACAATTGGATGGCGCCACCTCCTCCAATGGCAATGAGAAGTGCCAAAGTCTATGATTCGAAACATTCTCCTGCTGAATATCTTAAAAAATTTGCTCAAGACTTTCGCCGAAAAACCGGCATGCACTCCCAGCGGCATCACGAAGAAACAACACTGGAACAGGAGAAGCGTGTAGCGGGAGCTGGTCCCGACCCAATACATCACCAAGATACAACACTGGAACAGGAGAAGCGTGCAGTCCCAGCTGGGCCCGACCCAAAACATCACGAAGAAACAACACTGGAACAGGAGAAGCGTGCAGTCCCAGCTGGGCCCGACCCAAAACATCACGAAGAAACAACACTGGAACAGGAGAAGCGTGCAGTCCCAGCTGGGCCCGACCCAAAACATCACGAAGAAACAACATTTGAACAGGAGAAGCGTGGTGCGCCAGCTGGGCCCGACCCAATACATCACTGATGCTCTTATTCACAATGCTAAAATATCTGTAGACTATAGATAAATTGCTAGCAACAGATAAATGCCTGATCATAATGCTATGGCTAAGGTATCCGTATTCCGAACTAGCAATATAAGCGCATGCGTAGCTCTATCCATTTAATTTCACAATCTAAAGATTAAAATCTGCAGATATCTAGCTGTAGCTGGGCTATCTGCGGATGGAAAAATCGGCATTCTTAATATAATTTTTAATTGCTTAATAAACTTCAATAAAA
average number of carpels in flowers and siliques [1]: two | rescue of clv3-2 meristem defects [1]: nearly complete rescue | length of primary roots of transgenic potato hairy root lines (potato hairy roots): short root phenotype

B2: Gr-CLE-1: G. rostochiensis CLE gene, cDNA SEQ ID NO: 1, encoding a 204 amino acid secreted protein with four CLE motifs (nucleic acid, listed as Globodera rostochiensis)
DNA: TATTAATATTGACTAATTTTTTTTTACAAACATATTAATATTGACTAAAAAAATTGATTTTAATAACGACTATAGATATTACTTATGGAGCAACAAAAATCGTCATATTTCCCATCAAATTCAAATAAAACAATCTCTCCAATAAAGTAAATATGGCCAAGAACGCAATGCTTTGCCTGCTGATTTTGAGCGTTGTTCTTGCTCTCGCATTTGCTACAAATGAAAAGGATGATAAAGAAGCGGGGAACCTTTCGACCGGCATTTTTGGAAAGGCCGGAAGATTTGTGACCGTGGCACTTGCGATGTCGTCTCGTCTGGGAGGGGCTGGCGCATCCCAAGGAGGTGGAGCTGTACATGGAGAAAGCTTGAAATCCAATCAATTGCAAAACGCCTATCGGATGGCGCTTCCTCCTCCAATGCAAATAAAAAGTGCCGAAATTGACGGATGGAAACCGTCTCCTGATGAATATCTTAAAAAATTTGCTCAAGAATTTCGCCGAAACACCGGTATGAAACCCCAGTCGTATAATGAAGAGAAGCGTGTAACGCCGGGAGGGCCCGACCCACTACATAACCGTGAAAAAATTCTGGAAGAACAGAAGCGTGTAACGCCGGGAGGGCCTGACCCACTACATAACCGTGAAAAAACTCTGGAAGAACAGAAGCGTGTAACGCCGGGAGGGCCTGACCCACTACATAACCGTGAAAAAACTCTGGAAGAACAGAAGCGTGTAACGCCGGGAGTGCCCGACCGACAACATCGCTGAGGCAATACAAAAAGAGTGAAAGAAAATCGACGGATGTCTTTAGTAATTTCAATTCGTTCCTATCTTTCTCGTTCTGAAGACCAAATATCGATGATGTTAATGTTATGTTCGGAAAACAATTTCTGATATGCGCACACTTGGCA
average number of carpels in flowers and siliques [1]: three to four | rescue of clv3-2 meristem defects [1]: partial rescue | length of primary roots of transgenic potato hairy root lines (potato hairy roots): short root phenotype; also recorded: much shorter

B3: Gr-CLE-4-C: G. rostochiensis CLE gene of class Gr-CLE-4 with a single CLE motif, cDNA SEQ ID NO: 5 (nucleic acid, listed as Globodera rostochiensis)
DNA: ATCATAATTTCCAAAATCCCAATAAAAGCTTCCTCAATAAAGTAAATATGGCCACGAACACAATGCTTTGCCTGTTTGTTATAAGCGTTGTTCTCGCTCTCGCATTTGCTACGAATAAAAAGGGTGATGAAGAACCGGAGAACCATTCGACCGGCATTTTTGGAAAGGTCGGACGAGTTGTGACCGTGGCACTTGCGATGTCGTCTCGTCTGGGAGGGGCTGACGCAACCCGAGGAGGTGGAGCTGTATATGGAGGAAACTTGAAATCCAATCAATTGCCAAACAACAATTGGATGGCGCCACCTCCTCCAATGGCAATAAGAAGTGCCAAAGTCTATGATTCGAAACATTCTCCTGCTGAATATCTTAAAAAATTTGCTCAAGACTTTCGCCGAAAAACCGGCATGCACTCCCAGCGGCATCACGAAGAAACAACACTGGAACAGGAGAAGCGTGTAGCGGGAGCTGGTCCCGACCCAATACATCACTGATGCTCTTATTCACAATGCTAAAATATCTGTAGACTATAGATAAATTGCTAGCAACAG
average number of carpels in flowers and siliques [1]: three to four | rescue of clv3-2 meristem defects [1]: partial rescue | length of primary roots of transgenic potato hairy root lines (potato hairy roots): short root phenotype
